*1 amine or outer side, *2 acyl side, *3 side chain or, on linkers, in order; H or OH if unused. Bridges are numbered along the chain shown (N, C = ends). Where no end group is shown, it is not given here. [ ]: non-standard residue; d: D form. The star is where a group is joined. TATA = O=C(CC[*:1])N1CN(C(=O)CC[*:2])CN(C(=O)CC[*:3])C1; 1Nal = N[C@@H](Cc1cccc2ccccc12)C(=O)O; 2Nal = N[C@@H](Cc1ccc2ccccc2c1)C(=O)O; Phe(2-Me) = Cc1ccccc1C[C@H](N)C(=O)O; hPhe = N[C@@H](CCc1ccccc1)C(=O)O; NMeA = CN[C@@H](C)C(=O)O; Pent4ynoyl = C#CCCC(=O)*
T1: TREM2 on human iPSC macrophages (human, UniProt Q9NZC2 19-230)
T1 sequence (looked up): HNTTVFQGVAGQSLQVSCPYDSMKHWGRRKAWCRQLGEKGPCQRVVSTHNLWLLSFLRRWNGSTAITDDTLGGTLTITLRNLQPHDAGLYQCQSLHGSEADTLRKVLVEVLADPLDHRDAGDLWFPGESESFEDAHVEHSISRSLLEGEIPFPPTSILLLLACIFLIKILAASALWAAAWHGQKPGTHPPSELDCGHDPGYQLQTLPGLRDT

T2: Human TREM2 extracellular domain (ECD), residues 19-131, C-terminally biotinylated, glycosylated (human, UniProt Q9NZC2 19-131, C-terminally biotinylated; glycosylated)
T2 construct: range 19-131; loaded on Superstreptavidin biosensors; also called Human BLI glycosylated
T2 sequence (looked up): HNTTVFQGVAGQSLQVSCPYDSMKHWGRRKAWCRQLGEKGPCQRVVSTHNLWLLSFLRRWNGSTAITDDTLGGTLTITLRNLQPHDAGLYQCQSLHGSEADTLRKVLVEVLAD

T3: Human TREM2 extracellular domain (ECD), residues 19-131, C-terminally biotinylated, deglycosylated (human, UniProt Q9NZC2 19-131, C-terminally biotinylated; deglycosylated)
T3 construct: range 19-131; loaded on Superstreptavidin biosensors; also called triggering receptor expressed on myeloid cells 2; Human BLI (deglycosylated)
T3 sequence (looked up): T2 sequence (looked up)

B1: BCY19768 (peptide)
peptide: ACTSYCFWPFYQCA-NH2
modifications: linker 2-6-13 via TATA; N-terminus assumed
SMILES: C[C@H](N)C(=O)N[C@H]1CSCCC(=O)N2CN3CN(C2)C(=O)CCSC[C@H](NC(=O)[C@H](Cc2ccc(O)cc2)NC(=O)[C@H](CO)NC(=O)[C@H]([C@@H](C)O)NC1=O)C(=O)N[C@@H](Cc1ccccc1)C(=O)N[C@@H](Cc1c[nH]c2ccccc12)C(=O)N1CCC[C@H]1C(=O)N[C@@H](Cc1ccccc1)C(=O)N[C@@H](Cc1ccc(O)cc1)C(=O)N[C@@H](CCC(N)=O)C(=O)N[C@H](C(=O)N[C@@H](C)C(N)=O)CSCCC3=O
B2: BCY19766 (peptide)
peptide: ACSYYCFWPFQSCA-NH2
modifications: linker 2-6-13 via TATA; N-terminus assumed
SMILES: C[C@H](N)C(=O)N[C@H]1CSCCC(=O)N2CN3CN(C2)C(=O)CCSC[C@H](NC(=O)[C@H](Cc2ccc(O)cc2)NC(=O)[C@H](Cc2ccc(O)cc2)NC(=O)[C@H](CO)NC1=O)C(=O)N[C@@H](Cc1ccccc1)C(=O)N[C@@H](Cc1c[nH]c2ccccc12)C(=O)N1CCC[C@H]1C(=O)N[C@@H](Cc1ccccc1)C(=O)N[C@@H](CCC(N)=O)C(=O)N[C@@H](CO)C(=O)N[C@H](C(=O)N[C@@H](C)C(N)=O)CSCCC3=O
B3: BCY19669 (peptide)
peptide: Ac-CSEYCF[1Nal]PFYHC-NH2
modifications: linker 1-5-12 via TATA
SMILES: CC(=O)N[C@H]1CSCCC(=O)N2CN3CN(C2)C(=O)CCSC[C@H](NC(=O)[C@H](Cc2ccc(O)cc2)NC(=O)[C@H](CCC(=O)O)NC(=O)[C@H](CO)NC1=O)C(=O)N[C@@H](Cc1ccccc1)C(=O)N[C@@H](Cc1cccc2ccccc12)C(=O)N1CCC[C@H]1C(=O)N[C@@H](Cc1ccccc1)C(=O)N[C@@H](Cc1ccc(O)cc1)C(=O)N[C@@H](Cc1c[nH]cn1)C(=O)N[C@H](C(N)=O)CSCCC3=O
B4: BCY19671 (peptide)
peptide: CSEYCFXPFYHC
modifications: N-terminal acetyl (Ac); CiSEYCiiF[6ClTrp]PFYHCiii; Ci, Cii, Ciii on TATA scaffold
B5: BCY20060 (peptide)
peptide: CSEYCFXPFYHC
modifications: N-terminal acetyl (Ac); CiSEYCiiF[6MeTrp]PFYHCiii; Ci, Cii, Ciii on TATA scaffold
B6: BCY20052 (peptide)
peptide: CSEYCXWPFYHC
modifications: N-terminal acetyl (Ac); CiSEYCii[3FPhe]WPFYHCiii; Ci, Cii, Ciii on TATA scaffold
B7: BCY20073 (peptide)
peptide: CSEYCFWPXYHC
modifications: N-terminal acetyl (Ac); CiSEYCiiFWP[4FPhe]YHCiii; Ci, Cii, Ciii on TATA scaffold
B8: BCY20053 (peptide)
peptide: CSEYCXWPFYHC
modifications: N-terminal acetyl (Ac); CiSEYCii[4FPhe]WPFYHCiii; Ci, Cii, Ciii on TATA scaffold
B9: BCY20075 (peptide)
peptide: CSEYCFWPXYHC
modifications: N-terminal acetyl (Ac); CiSEYCiiFWP[44BPA]YHCiii; Ci, Cii, Ciii on TATA scaffold
B10: BCY20071 (peptide)
peptide: CSEYCFWPXYHC
modifications: N-terminal acetyl (Ac); CiSEYCiiFWP[2MePhe]YHCiii; Ci, Cii, Ciii on TATA scaffold
B11: BCY20066 (peptide)
peptide: CSEYCFWXFYHC
modifications: N-terminal acetyl (Ac); CiSEYCiiFW[44DFP]FYHCiii; Ci, Cii, Ciii on TATA scaffold
B12: BCY20059 (peptide)
peptide: CSEYCFXPFYHC
modifications: N-terminal acetyl (Ac); CiSEYCiiF[Trp(Me)]PFYHCiii; Ci, Cii, Ciii on TATA scaffold

Biological target: T1, TREM2 on human iPSC macrophages
Experiment: cell-based or functional assay

Binder | pSYK (µM)
CSEYCFWPXYHC (N-terminal acetyl (Ac); CiSEYCiiFWP[1Nal]YHCiii; Ci, Cii, Ciii on TATA scaffold) [BCY19668] | 12.7 µM
ACSNYCFWPFWQCA (linker 2-6-13 via TATA) [BCY19770] | 4.5 µM
ACSEYCFWPFFLCA (linker 2-6-13 via TATA) [BCY19776] | 4.4 µM
ACSNYCFWPFFQCA (linker 2-6-13 via TATA) [BCY19772] | 13.9 µM
ACSEYCFWPFWQCA (linker 2-6-13 via TATA) [BCY19778] | 4.6 µM
B1 | 7.8 µM
ACTNYCFWPFQSCA (linker 2-6-13 via TATA) [BCY19780] | 12.6 µM
ACTNYCFWPFWSCA (linker 2-6-13 via TATA) [BCY19769] | 0.2 µM
ACTNYCFWPFYSCA (linker 2-6-13 via TATA) [BCY19781] | 34.1 µM
ACTNYCFWPFQYCA (linker 2-6-13 via TATA) [BCY19779] | 2.5 µM
ACTNYCFWPFYLCA (linker 2-6-13 via TATA) [BCY19782] | 3.8 µM
ACTNYCFWPFAVCA (linker 2-6-13 via TATA) [BCY19783] | 4.2 µM
ACSYYCFWPFQYCA (linker 2-6-13 via TATA) [BCY19767] | 8.6 µM
ACSEYCFWPFQYCA (linker 2-6-13 via TATA) [BCY19784] | 1.8 µM
B2 | 35.2 µM
ACSEYCFWPFQWCA (linker 2-6-13 via TATA) [BCY19771] | 9.9 µM
Ac-CSEYCF[1Nal]P[hPhe]YHC (linker 1-5-12 via TATA) [BCY19672] | 8.5 µM
CSEYCFWPXYHC (N-terminal acetyl (Ac); CiSEYCiiFWP[HPhe]YHCiii; Ci, Cii, Ciii on TATA scaffold) [BCY19667] | 7.4 µM
B3 | 16.6 µM
Ac-CSEYCF[2Nal]PFYAC (linker 1-5-12 via TATA) [BCY19296] | < 3.4 µM
Ac-CSEYCF[1Nal]PFYAC (linker 1-5-12 via TATA) [BCY19294] | < 3.4 µM
Ac-CSEYCFWPFYAC (linker 1-5-12 via TATA) [BCY19293] | 7.2 µM
Ac-CSEYCFW[NMeA]FYAC (linker 1-5-12 via TATA) [BCY19303] | < 3.4 µM
B4 | 154 µM

Biological target: T2, Human TREM2 extracellular domain (ECD), …
Experiment: BLI steady state, glycosylated human TREM2 ECD on sensor
Method: (§1) Bio-layer interferometry was performed on an Octet RED384® system (Sartorius) at 25° C. in a buffer containing 50 mM HEPES (pH 7.5), 150 mM NaCl and 0.1% Tween. […] Reference wells containing no bicycle peptides and reference sensors loaded with an unrelated protein (His-tagged MLLT3a) were subjected to the same assay protocol and double reference subtraction was used for processing to account for non-specific binding. Traces were analysed using Octet Software (Version 11.0). Association and dissociation curves were globally fit and the response at equilibrium (Req) plotted against concentration to obtain steady-state KD values.

Binder | Kd
Ac-CSEYCF[Phe(2-Me)]PFYHC (linker 1-5-12 via TATA) [BCY20063] | 1580 nM
B5 | 1110 nM
K(Pent4ynoyl)CSEYCFWPFYHC (linker 2-6-13 via TATA) [BCY20042] | 1350 nM
CSEYCXWPFYHC (N-terminal acetyl (Ac); CiSEYCii[1Nal]WPFYHCiii; Ci, Cii, Ciii on TATA scaffold) [BCY20054] | 1830 nM
B6 | 1250 nM
Ac-CSEYCFWPFWHC (linker 1-5-12 via TATA) [BCY20077] | 750 nM
B7 | 2130 nM
CSEYCFWPXYHC (N-terminal acetyl (Ac); CiSEYCiiFWP[2Nal]YHCiii; Ci, Cii, Ciii on TATA scaffold) [BCY20076] | 1290 nM
B8 | 1710 nM
B9 | 1510 nM
B10 | 780 nM
B11 | 980 nM
B12 | 1500 nM

Biological target: T3, Human TREM2 extracellular domain (ECD), …
Experiment: BLI steady state, deglycosylated human TREM2 ECD on sensor
Method: as §1

Binder | Kd
CSEYCFWPXYHC (N-terminal acetyl (Ac); CiSEYCiiFWP[1Nal]YHCiii; Ci, Cii, Ciii on TATA scaffold) [BCY19668] | 240 nM
ACSNYCFWPFWQCA (linker 2-6-13 via TATA) [BCY19770] | 1800 nM
ACSEYCFWPFFLCA (linker 2-6-13 via TATA) [BCY19776] | 750 nM
ACSNYCFWPFFQCA (linker 2-6-13 via TATA) [BCY19772] | 960 nM
ACSEYCFWPFWQCA (linker 2-6-13 via TATA) [BCY19778] | 3600 nM
Ac-CSEYCF[Phe(2-Me)]PFYHC (linker 1-5-12 via TATA) [BCY20063] | 1300 nM
B5 | 1390 nM
K(Pent4ynoyl)CSEYCFWPFYHC (linker 2-6-13 via TATA) [BCY20042] | 1190 nM
CSEYCXWPFYHC (N-terminal acetyl (Ac); CiSEYCii[1Nal]WPFYHCiii; Ci, Cii, Ciii on TATA scaffold) [BCY20054] | 2540 nM
B1 | 900 nM
B6 | 4880 nM
ACTNYCFWPFQSCA (linker 2-6-13 via TATA) [BCY19780] | 2400 nM
ACTNYCFWPFWSCA (linker 2-6-13 via TATA) [BCY19769] | 920 nM
ACTNYCFWPFYSCA (linker 2-6-13 via TATA) [BCY19781] | 1400 nM
ACTNYCFWPFQYCA (linker 2-6-13 via TATA) [BCY19779] | 920 nM
ACTNYCFWPFYLCA (linker 2-6-13 via TATA) [BCY19782] | 1400 nM
ACTNYCFWPFAVCA (linker 2-6-13 via TATA) [BCY19783] | 2700 nM
ACSYYCFWPFQYCA (linker 2-6-13 via TATA) [BCY19767] | 550 nM

Binder | Kd
ACSEYCFWPFQYCA (linker 2-6-13 via TATA) [BCY19784] | 450 nM
B2 | 1000 nM
ACSEYCFWPFQWCA (linker 2-6-13 via TATA) [BCY19771] | 5700 nM
Ac-CSEYCF[1Nal]P[hPhe]YHC (linker 1-5-12 via TATA) [BCY19672] | 2800 nM
B7 | 2320 nM
CSEYCFWPXYHC (N-terminal acetyl (Ac); CiSEYCiiFWP[HPhe]YHCiii; Ci, Cii, Ciii on TATA scaffold) [BCY19667] | 430 nM
B3 | 2000 nM
Ac-CSEYCF[2Nal]PFYAC (linker 1-5-12 via TATA) [BCY19296] | 2700 nM
Ac-CSEYCF[1Nal]PFYAC (linker 1-5-12 via TATA) [BCY19294] | 1500 nM
B8 | 2010 nM
B9 | 2400 nM
CSEYCFWPFXHC (N-terminal acetyl (Ac); CiSEYCiiFWPF[1Nal]HCiii; Ci, Cii, Ciii on TATA scaffold) [BCY20081] | 1060 nM
Ac-CSEYCFWPFYAC (linker 1-5-12 via TATA) [BCY19293] | 970 nM
B10 | 910 nM
B11 | 1860 nM
B12 | 1810 nM
Ac-CSEYCFW[NMeA]FYAC (linker 1-5-12 via TATA) [BCY19303] | 2300 nM
B4 | 1000 nM
